Measured values reported in PMC3764422, “A model of yeast glycolysis based on a consistent kinetic characterisation of all its enzymes” (Febs Letters, 2013).

Legend:
Experiment in all cases: purified protein
Assay type in all cases: biochemical, Saccharomyces cerevisiae
purified protein [1] = substrate: C=C(OP(=O)(O)O)C(=O)O; details: standardised reaction buffer, 30 °C, co-substrate ADP
purified protein [2] = substrate: O=C(CO)COP(=O)(O)O; details: standardised reaction buffer, 30 °C, measured in-house, also reported in Mendes et al. [42]
purified protein [3] = substrate: O=C(O)[C@@H](CO)OP(=O)(O)O; details: standardised reaction buffer, 30 °C
purified protein [4] = substrate: O=C(O)[C@H](O)COP(=O)(O)O; details: standardised reaction buffer, 30 °C, product PEP
purified protein [5] = substrate: Nc1ncnc2c1ncn2[C@@H]1O[C@H](COP(=O)(O)OP(=O)(O)OP(=O)(O)O)[C@@H](O)[C@H]1O; details: standardised reaction buffer, 30 °C
purified protein [6] = substrate: CC=O; details: standardised reaction buffer, 30 °C, co-substrate NADH

B1: Cdc19p (Saccharomyces cerevisiae S288C) (protein)
chain: SRLERLTSLNVVAGSDLRRTSIIGTIGPKTNNPETLVALRKAGLNIVRMNFSHGSYEYHKSVIDNARKSEELYPGRPLAIALDTKGPEIRTGTTTNDVDYPIPPNHEMIFTTDDKYAKACDDKIMYVDYKNITKVISAGRIIYVDDGVLSFQVLEVVDDKTLKVKALNAGKICSHKGVNLPGTDVDLPALSEKDKEDLRFGVKNGVHMVFASFIRTANDVLTIREVLGEQGKDVKIIVKIENQQGVNNFDEILKVTDGVMVARGDLGIEIPAPEVLAVQKKLIAKSNLAGKPVICATQMLESMTYNPRPTRAEVSDVGNAILDGADCVMLSGETAKGNYPINAVTTMAETAVIAEQAIAYLPNYDDMRNCTPKPTSTTETVAASAVAAVFEQKAKAIIVLSTSGTTPRLVSKYRPNCPIILVTRCPRAARFSHLYRGVFPFVFEKEPVSDWTDDVEARINFGIEKAKEFGILKKGDTYVSIQGFKAGAGHSNTLQVSTV
notes: tagged full-length ORF, expressed in and purified from S. cerevisiae
- Km (purified protein [1]): 0.281 (SEM 12%) mM
- kcat (purified protein [1]): 20.1 s⁻¹

B2: Tpi1p (Saccharomyces cerevisiae S288C) (protein)
chain: ARTFFVGGNFKLNGSKQSIKEIVERLNTASIPENVEVVICPPATYLDYSVSLVKKPQVTVGAQNAYLKASGAFTGENSVDQIKDVGAKWVILGHSERRSYFHEDDKFIADKTKFALGQGVGVILCIGETLEEKKAGKTLDVVERQLNAVLEEVKDWTNVVVAYEPVWAIGTGLAATPEDAQDIHASIRKFLASKLGDKAASELRILYGGSANGSNAVTFKDKADVDGFLVGGASLKPEFVDIINSRN
notes: as for B1
- Km (purified protein [2]): 6.45 (SEM 5%) mM

B3: Eno1p (Saccharomyces cerevisiae S288C) (protein)
chain: AVSKVYARSVYDSRGNPTVEVELTTEKGVFRSIVPSGASTGVHEALEMRDGDKSKWMGKGVLHAVKNVNDVIAPAFVKANIDVKDQKAVDDFLISLDGTANKSKLGANAILGVSLAASRAAAAEKNVPLYKHLADLSKSKTSPYVLPVPFLNVLNGGSHAGGALALQEFMIAPTGAKTFAEALRIGSEVYHNLKSLTKKRYGASAGNVGDEGGVAPNIQTAEEALDLIVDAIKAAGHDGKIKIGLDCASSEFFKDGKYDLDFKNPNSDKSKWLTGPQLADLYHSLMKRYPIVSIEDPFAEDDWEAWSHFFKTAGIQIVADDLTVTNPKRIATAIEKKAADALLLKVNQIGTLSESIKAAQDSFAAGWGVMVSHRSGETEDTFIADLVVGLRTGQIKTGAPARSERLAKLNQLLRIEEELGDNAVFAGENFHHGDKL
notes: tagged full-length ORF, expressed in and purified from S. cerevisiae, assayed immediately after purification
- Km (purified protein [3]): 0.043 (SEM 10%) mM
- kcat (purified protein [3]): 7.6 s⁻¹
- kcat (purified protein [4]): 5.07 s⁻¹

B4: Glk1p (Saccharomyces cerevisiae S288C) (protein)
chain: SFDDLHKATERAVIQAVDQICDDFEVTPEKLDELTAYFIEQMEKGLAPPKEGHTLASDKGLPMIPAFVTGSPNGTERGVLLAADLGGTNFRICSVNLHGDHTFSMEQMKSKIPDDLLDDENVTSDDLFGFLARRTLAFMKKYHPDELAKGKDAKPMKLGFTFSYPVDQTSLNSGTLIRWTKGFRIADTVGKDVVQLYQEQLSAQGMPMIKVVALTNDTVGTYLSHCYTSDNTDSMTSGEISEPVIGCIFGTGTNGCYMEEINKITKLPQELRDKLIKEGKTHMIINVEWGSFDNELKHLPTTKYDVVIDQKLSTNPGFHLFEKRVSGMFLGEVLRNILVDLHSQGLLLQQYRSKEQLPRHLTTPFQLSSEVLSHIEIDDSTGLRETELSLLQSLRLPTTPTERVQIQKLVRAISRRSAYLAAVPLAAILIKTNALNKRYHGEVEIGCDGSVVEYYPGFRSMLRHALALSPLGAEGERKVHLKIAKDGSGVGAALCALVA
notes: tagged full-length ORF (mostly C-terminal tag, yeast ORF/GST/TAP collections), expressed in and purified from S. cerevisiae
- Km (purified protein [5]): 865 µM
- kcat (purified protein [5]): 0.0721 s⁻¹

B5: Adh1p (Saccharomyces cerevisiae S288C) (protein)
chain: SIPETQKGVIFYESHGKLEYKDIPVPKPKANELLINVKYSGVCHTDLHAWHGDWPLPVKLPLVGGHEGAGVVVGMGENVKGWKIGDYAGIKWLNGSCMACEYCELGNESNCPHADLSGYTHDGSFQQYATADAVQAAHIPQGTDLAQVAPILCAGITVYKALKSANLMAGHWVAISGAAGGLGSLAVQYAKAMGYRVLGIDGGEGKEELFRSIGGEVFIDFTKEKDIVGAVLKATDGGAHGVINVSVSEAAIEASTRYVRANGTTVLVGMPAGAKCCSDVFNQVVKSISIVGSYVGNRADTREALDFFARGLVKSPIKVVGLSTLPEIYEKMEKGQIVGRYVVDTSK
notes: as for B1
- Km (purified protein [6]): 0.462 (SEM 5.3%) mM
- kcat (purified protein [6]): 176 s⁻¹
